Reference: paper PMC2566879

Columns and labels:
[1] = target: histone H3/H4 tetramer coupled to the SPR sensor chip (UniProt P84229); test: SPR
[2] = target: histone H1 coupled to the SPR sensor chip (UniProt P02253); test: SPR
Sequence of UniProt P02253 (P02253 whole entry): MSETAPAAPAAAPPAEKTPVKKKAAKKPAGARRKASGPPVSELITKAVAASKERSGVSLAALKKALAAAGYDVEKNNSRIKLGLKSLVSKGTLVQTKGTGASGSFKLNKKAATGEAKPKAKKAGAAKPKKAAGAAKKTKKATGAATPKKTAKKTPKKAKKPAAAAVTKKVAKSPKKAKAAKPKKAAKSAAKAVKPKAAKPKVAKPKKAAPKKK

Kd [1]: 237 nM
koff [1]: 0.000691 s⁻¹
kon [1]: 2920 M⁻¹ s⁻¹
Kd [2]: 13.8 nM
koff [2]: 0.000198 s⁻¹
kon [2]: 14400 M⁻¹ s⁻¹
Substance: recombinant human somatic NASP (nuclear autoantigenic sperm protein), NH2-terminal 6His tag (from UniProt P49321-2 1-449) (natural protein)
